From IntAct's records for PubMed 16456538 come the findings set out here.

The chains are these.
B1: Uncharacterized protein TRE1 (Saccharomyces cerevisiae), Q08919 (parent)
chain: MVNTRGYTTLPNVEEPANNSQDELNSQDFEQAIGMPSEPPVYVEEMGMEEPQAPEAFSEKVQRFRMCFENNVVIPVKKNVVDPLAQMISLASEKFDLFLSKIGNVMVMRRIFYIMMMSIIAALIIASDRLPNGKARGSNGSFSDHDLLLQYARKSIDLSKIERDLEYISSMPHMSGTSGDAAIRHYIKESFDKNGIRLAGEEEFMAYSNYPGNVSLRVYSKDDTEGFDIPLNEENFNPMSHNGQLNNIPVIYANKASLDDMASMQDQGLLNGDFILLVHYGDYVFQQMLTAQEYGAKAIIFISEPYQDNKDVIQMKSVALPQYGTGDALTPEWEGSIRDPIDATEAKCLPKIPSIPISANQGDKILAILSDTGVKFSNNLFSGSLNDCRLDLLVQTAIRERHPVHDIVGKIEGSEQAGRAIVIAAPRNSASYGTMYPSFGTVVLLSLIQLYQEMVYKFDWKPLRNIYFISFGGSEFNEAGATELMEKRTEALKSEIYTIIDVGQIGIWDDSNNLEIQCHPLLVDLFQKNMTSRKFNVKVDNVHQFGDWTPYLAQGIPVAIISSPGVMNREHPIYTVEDKFDFIKDKLRDKKKGEVLSEIMLYLVEKSLELIDDPFIPFSISNYVDFLSTTLKDLQKECPDTVNFDEVFLGTTLWENTKLQFEKWKSEWTELMYGAGTYIEPTIIAINRWSWNYLLSLIGVTQCLEEGLMDRTFYKNVIFGPKLWVDKGDPLRSWTFPEIRDTIAIKDWSSVQVQANTLGTILQNTARYFLENKNLHGINTNEF

The variants in the first assay derive from B1. Conditions: with rsp5_yeast RSP5, P39940.
rsp5_yeast RSP5, P39940, sequence (P39940 whole entry): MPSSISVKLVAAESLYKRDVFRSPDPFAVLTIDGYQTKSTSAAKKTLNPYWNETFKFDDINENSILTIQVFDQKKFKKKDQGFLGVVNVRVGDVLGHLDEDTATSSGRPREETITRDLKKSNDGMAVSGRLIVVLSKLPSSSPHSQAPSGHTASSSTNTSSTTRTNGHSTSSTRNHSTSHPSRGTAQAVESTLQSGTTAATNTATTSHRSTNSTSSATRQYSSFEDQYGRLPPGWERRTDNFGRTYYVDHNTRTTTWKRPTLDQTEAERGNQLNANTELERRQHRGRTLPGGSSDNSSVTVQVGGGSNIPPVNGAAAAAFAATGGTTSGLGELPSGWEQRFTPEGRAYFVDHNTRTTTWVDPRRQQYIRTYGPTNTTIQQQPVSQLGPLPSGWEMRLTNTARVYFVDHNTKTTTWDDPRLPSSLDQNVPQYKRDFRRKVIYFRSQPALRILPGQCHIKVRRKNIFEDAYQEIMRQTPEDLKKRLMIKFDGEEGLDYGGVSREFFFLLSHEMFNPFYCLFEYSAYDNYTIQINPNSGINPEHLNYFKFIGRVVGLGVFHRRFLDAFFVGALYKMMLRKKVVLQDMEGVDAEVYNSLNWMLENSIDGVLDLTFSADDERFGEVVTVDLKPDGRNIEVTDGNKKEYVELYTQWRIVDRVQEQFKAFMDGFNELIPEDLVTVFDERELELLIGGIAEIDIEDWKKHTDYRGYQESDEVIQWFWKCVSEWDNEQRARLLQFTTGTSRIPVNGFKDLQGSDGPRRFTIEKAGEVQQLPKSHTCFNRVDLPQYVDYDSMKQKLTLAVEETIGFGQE
With Y42G, the “effect of a mutation on the interaction” value was “disrupting interaction”.

As to V41A, the “effect of a mutation on the interaction” value is on record as “disrupting interaction”.

The next assay covers variants of B1. Conditions: with rsp5_yeast RSP5, P39940. The source holds these as a separate data set.
Consider Y42G, for which the “effect of a mutation on the interaction” value is “decreasing interaction”.
